Changes are numbered by the printed parent chain. “And” between values parts separate entries of the source, which are not always exact repeats. Identical values can stand only once.
B1: SA3830 (antibody, V domains shown)
VH: QVQLVESGGGLIQPGRSLSLSCAASGFNFDEYSMHWVRQRPGKGLEWVSGIKYNSNTILYADSVKGRFTVSRDNSKNSLYLQMNSLRAEDTAVYYCARDAMRGGDFDHWGQGTLITVSS
VL: DIQMTQSPSYLSASAGDRVTITCRASQSISDWLAWYQHKPGKAPKLLIYKASRLENGVPSRFRGSGSATDFTLTISSLQAEDVAVYYCQQYYSTTWTFGQGTKVDIK
B2: SA4040 (antibody, V domains shown)
VH: EVQLVQSGAEVKKPGASVKVSCKASGYTFTGYYMHWARQAPGQGLEWMGWINPNSGGTNYAQKFQGRVTMTRDTSITTAYMELSRLTSDDTAVYYCARDQAFSMVRGVTDYWGQGTLVTVSS
VL: QSALTQPPSASGSPGQSVIISCTGSSSDVGGYNYVAWYQQYPGAAPKLIISEVTKRPSGVPDRFSGSKSGNTASLTISGLQAEDEANYYCSSYAGDNTWIFGGGTKLTVL
B3: SA3856 (antibody, V domains shown)
VH: QMQLVESGGGLIQPGGSLRLSCAASGFTVTSAYMSWVRQAPGKGLEWVSIIYGGGSTYYADSVKGRFTISRDNSKNTLYLQMNSLRAEDTAVYYCTGPYPGRYDYWGRGTLVTVSS
VL: DIQMTQSPSSLSASVGDRVIITCRASQDIRTSLAWFQQRLGEAPRSLIYDASSLQNGVPSKFRGSGSGTDFTLTISSLQPEDFATYYCQQYKTVPLTFGGGTKVEIK
B4: SA4044 (antibody, V domains shown)
VH: EVQLVQSGGGLIQPGGSLRLSCAASGFTVSSNYMSWVRQAPGKGLEWVSVIYSGGSTYYADSVKGRFTISRDNSKNTLHLQMNSLRAEDTAVYYCARDLPQFDGFDYWGQGTLVTVSS
VL: QSALTQPPSLSVAPGRTARITCGGNNIGSKSVNWYQHMPGQAPVLVIYSDTDRPSGIPERVSGSKSGNTATLSISRVEAGDEADYYCQVWDSTTDHVVFGGGTKLTVL
B5: SA4055 (antibody, V domains shown)
VH: EVQLVQSGGGLVQPGGSLRLSCAASVITVSSNYMSWVRQAPGKGLEWVSVIYPGGSTYYADSVKGRFTISRDKSKNTLYLQMNSLRAEDTAVYYCARDLDIVGGMDVWGQGTTVTVSS
VL: QSALTQPASVSGSPGQSITISCTGTSSDVGDYNLVSWYQQHPGKAPKVMIYDVSHRPSGVSNRFSGSKSGNTASLTISGLQAEDEADYYCSSYTSSTTVVFGGGTKLTVL
B6: SA4057 (antibody, V domains shown)
VH: B5 VH
VL: QLVLTQPPSVSGAPGQRVTISCTGSSSNIGAPHDVHWYQQLPGTAPRLLIYANNNRPSGVPDRFSGSKSGTSASLAITGLQDEDEADYYCQSYDSSLRAYVFGTGTKVTVL
B7: SA4056 (antibody, V domains shown)
VH: B5 VH with E1Q, V5Q, Q6E
VL: DIQMTQSPSTLSASVGDRVTITCRASQSISRWLAWYQQKPGQAPKLLIYAASTLQSGVPSRFSGSGSGTEFTLTISSLQPDDFATYYCQQYDSYPRTFGQGTKVDIK
B8: SA4043 (antibody, V domains shown)
VH: B5 VH with E1Q, V5Q, Q6E
VL: B7 VL
B9: SA4050 (antibody, V domains shown)
VH: QVQLVESGAEVKKPGASVKVSCKASGYTFTGYFIHWVRQAPGQGLEWMGWINPNSGGTNYAQKFQGRVTMTRDTSISTAYMELSRLRSDDTAVYYCARVPHLSGYYYEGVLGYFDYWGQGTLVTVSS
VL: QSALTQPASVSGSPGQSITISCTGTSIDIGSYNFVSWYQRHPGKAPRLLIYDVSDRPSGVSNRFSGSKSANTASLTISGLQAEDEADYYCSSYTSSSLWVFGGGTKLTVL
B10: SA3902 (antibody, V domains shown)
VH: QVQLVQSGAEVRQPGASVKVSCKTSGYAFSYYHIHWVRQAPGQGLEWMGLINPGSGGTNYAQKFQGRVTLTRDTSTSTVYMDLTGLRSEDTAVYYCAGSEQPHYYANGAYRVWGQGTLVTVSS
VL: DIQMTQSPSTLSASVGDRVTITCRASQSISSYLNWYQQKPGKAPKLLIYEVSTLESGVPSRFSGSRSGTEFTLTISSLQPDDFATYYCQQYDTFGGGTKVEIK
B11: SA4053 (antibody, V domains shown)
VH: EVQLVQSGGGLVQPGGSLRLSCADSGFTFSSYWMSWVRQVPGKGLEWVANIKQDGSEKYYVDSVKGRFTISRDNAKNSLYLQMNSLRAEDTAVYYCARDVGRGYCSSTSCYRFGGREDFFDYWGQGTLVTVSS
VL: QLVLTQPPSVSAAPGQRVTISCSGSFSNVGNNFVSWYRHLPGTAPELLIYDNNQRPSGIPDRFSASKSGTSATLAITGLHTGDEADYYCGTWDTSLSGVVFGGGTKLTVL

Tests used:
SARS-CoV-2 RBD-mFc [1] = biological target: T1, SARS-CoV-2 RBD-mFc (SARS-CoV-2, UniProt P0DTC2 319-541); assay: competition ELISA: RBD-mFc on coated ACE2-His
T1 construct: range 319-541

SARS-CoV-2 RBD-hFc = SARS-CoV-2 RBD-hFc (SARS-CoV-2, UniProt P0DTC2 319-541); assay: cell-based or functional assay
[2] = biological target: T2, SARS-CoV-2 spike protein on live SARS-CoV-2 virus (SARS-CoV-2, UniProt P0DTC2 14-1273); assay: cell-based or functional assay
[3] = biological target: SARS-CoV 스파이크 [change] (#40150-V08B1, Sino Biological) (SARS-CoV, UniProt P59594 14-667); assay: ELISA, coated S1-His
SARS-CoV-2 RBD-mFc [4] = biological target: T1, SARS-CoV-2 RBD-mFc; assay: Octet QKe BLI, 1:1 global fit
SARS-CoV-2 스파이크 S1-mFc = biological target: T3, SARS-CoV-2 스파이크 S1-mFc (SARS-CoV-2, UniProt P0DTC2 16-685); assay: competition ELISA: S1-mFc on coated ACE2-His
T3 construct: range 16-685

SARS-CoV-2 RBD-mFc [5] = biological target: T1, SARS-CoV-2 RBD-mFc; assay: flow cytometry competition: RBD-mFc on HEK293E/ACE2 cells
[6] = biological target: SARS-CoV RBD-His (#40150-V08B2, Sino Biological) (SARS-CoV, UniProt P59594 306-527); assay: ELISA, coated His-tagged antigen
[7] = biological target: T2, SARS-CoV-2 spike protein on live …; assay: cell-based or functional assay; remark: listed apart in the source

Binder	IC50 (SARS-CoV-2 RBD-mFc [1])	IC50, 세포내 유입(internalization) 억제, HEK293E/ACE2-GFP (SARS-CoV-2 RBD-hFc)	IC50, live SARS-CoV-2 미세중화분석, Vero 세포 [2]	binding result [3]	Kd (SARS-CoV-2 RBD-mFc [4])	koff (SARS-CoV-2 RBD-mFc [4])	kon (SARS-CoV-2 RBD-mFc [4])	IC50 (SARS-CoV-2 스파이크 S1-mFc)	IC50 (SARS-CoV-2 RBD-mFc [5])	binding result [6]	IC50, live SARS-CoV-2 미세중화분석, Vero 세포, 72시간 [7]
B1	10.2 nM	13.5 nM	231 nM	no binding (tested: 50 nM)	0.782 nM	0.000702 s⁻¹	897000 M⁻¹ s⁻¹	1.86 nM	2.57 nM	no binding	–
B2	25.3 nM	30.8 nM	8.14 nM	no binding (tested: 50 nM)	0.384 nM	0.000181 s⁻¹	471000 M⁻¹ s⁻¹	3.1 nM	1.59 nM	no binding	–
B3	25.1 nM	11.9 nM	137 nM	no binding (tested: 50 nM)	0.0888 nM	4.3e-05 s⁻¹	484000 M⁻¹ s⁻¹	2.11 nM	2.67 nM	no binding	–
B4	58.3 nM	39.2 nM	80.5 nM	no binding (tested: 50 nM)	–	–	–	13.6 nM	2.21 nM	no binding	–
B5	0.144 nM	37.1 nM	7 nM	no binding (tested: 50 nM)	0.061 nM	2.36e-05 s⁻¹	387000 M⁻¹ s⁻¹	1.88 nM	2.9 nM	no binding	3.22 nM and 4.51 nM
B6	4.81 nM	28.1 nM	37.5 nM	no binding (tested: 50 nM)	0.0284 nM	4.96e-06 s⁻¹	175000 M⁻¹ s⁻¹	–	4.13 nM	no binding	–
B7	1.86 nM	28.1 nM	11.3 nM	no binding (tested: 50 nM)	0.0907 nM	4.32e-05 s⁻¹	477000 M⁻¹ s⁻¹	1.4 nM	2.19 nM	no binding	–
B8	1.76 nM	12.8 nM	12.5 nM	no binding (tested: 50 nM)	–	–	–	1.43 nM	1.69 nM	no binding	–
B9	3.14 nM	36.9 nM	0.71 nM	no binding (tested: 50 nM)	0.0929 nM	4.67e-05 s⁻¹	503000 M⁻¹ s⁻¹	1.45 nM	2.93 nM	no binding	–
B10	12.4 nM	14.9 nM	37.3 nM	no binding (tested: 50 nM)	0.328 nM	8.12e-05 s⁻¹	247000 M⁻¹ s⁻¹	3.85 nM	1.75 nM	no binding	–
B11	40.6 nM	62.7 nM	346 nM	no binding (tested: 50 nM)	0.689 nM	0.000218 s⁻¹	316000 M⁻¹ s⁻¹	22 nM	2.21 nM	no binding	–
